In the data set the target is T1, CBX8-directed TALE-omega (synthetic construct, UniProt Q56830 SEQ:41-724).
T1 chain: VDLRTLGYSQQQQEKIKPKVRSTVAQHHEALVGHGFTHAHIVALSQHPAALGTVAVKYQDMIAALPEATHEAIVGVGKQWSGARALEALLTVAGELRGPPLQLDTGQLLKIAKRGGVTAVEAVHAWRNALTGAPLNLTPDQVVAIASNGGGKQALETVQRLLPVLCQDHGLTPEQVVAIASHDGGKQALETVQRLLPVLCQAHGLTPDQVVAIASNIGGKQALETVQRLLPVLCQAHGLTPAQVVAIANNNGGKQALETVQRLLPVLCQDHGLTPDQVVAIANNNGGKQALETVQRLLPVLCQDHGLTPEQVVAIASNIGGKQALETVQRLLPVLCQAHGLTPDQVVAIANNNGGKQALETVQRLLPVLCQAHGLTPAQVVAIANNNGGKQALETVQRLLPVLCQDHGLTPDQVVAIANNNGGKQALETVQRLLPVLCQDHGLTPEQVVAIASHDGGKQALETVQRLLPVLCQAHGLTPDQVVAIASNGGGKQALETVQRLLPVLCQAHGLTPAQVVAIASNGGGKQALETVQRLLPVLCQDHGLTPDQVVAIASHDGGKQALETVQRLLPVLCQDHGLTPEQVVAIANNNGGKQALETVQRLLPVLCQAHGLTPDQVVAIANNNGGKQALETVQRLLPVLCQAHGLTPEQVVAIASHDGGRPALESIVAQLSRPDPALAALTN
Nature of the data set: one_hybrid; luciferase induction, 18 aa C-terminus plus GGGGS linker. Particulars: tags: N-terminal FLAG-NLS, C-terminal RNAP omega. The method, then: This system was used to continuously evolve TALE proteins with novel properties. A series of C-terminal fusions between a previously reported TALE array targeting CBX8 (right half-site TALE)¹⁸, and the RNAP w subunit were tested. […] The sequence specificity of the system was verified using an off-target sequence in the luciferase assay, and performed on- and off-target colorimetric plaque assays using TALE-ω SP and host cells harboring the AP containing the target CBX8 sequence. Similar to the findings with zinc fingers, both luciferase expression and phage propagation were dependent on the presence of the cognate TALE binding site (FIG. 10B). Finally, PACE was performed for 24 h on the cognate AP to optimize the SP backbone.
Luciferase assay. pOH plasmids were transformed by electroporation into S1030 cells, and grown overnight at 37° C. on LB-agar plates supplemented with 50 μg/mL carbenicillin. Single colonies were used to inoculate cultures which were allowed to grow for ˜12 h at 37° C. in DRM supplemented with 50 μg/mL carbenicillin in a shaker. Cultures were diluted to an OD₆₀₀ of ˜0.3 and allowed to grow for an additional 2 h at 37° C. […] 200 μL aliquots of each sample were then transferred to 96-well opaque plates and luminescence and OD₆₀₀ readings were taken using a Tecan Infinite Pro instrument. Luminescence data were normalized to cell density by dividing by the OD₆₀₀ value.

B1: CBX8 5'T site (dsDNA)
DNA 1: TTCAGGAGGGCTTCGGC
DNA 2: GCCGAAGCCCTCCTGAA
Turning to B1, the binding signal was greater than 10 fold.

The values above are taken from US20240200044, “EVOLUTION OF TALENS” (President and Fellows of Harvard College, published 2024).
